Source: patent publication US20130052162A1, “BOOSTING IMMUNE DEFENSE BY UPREGULATING CCAAT/ENHANCER BINDING PROTEIN EPSILON” (CEDARS-SINAI MEDICAL CENTER, priority 2010, published 2013)
Entries after “also recorded” stand apart in the source; their conditions may differ.

B1: IFN-γ: recombinant murine IFN-γ (Shenandoah Biotechnology) (protein, UniProt P01580 23-155, looked up)
Interferon gamma: HGTVIESLESLNNYFNSSGIDVEEKSLFLDIWRNWQKDGDMKILQSQIISFYLRLFEVLKDNQAISNNISVIESHLITTFFSNSKAKKDAFMSIAKFEVNNPQVQRQAFNELIRVVHQLLPESSLRKRKRSRC

Legend:
[1] = system: S. aureus (strains Pig1 and LAC); experiment: Effect of zinc on growth and viability of S. aureus; type: cell-based, Staphylococcus aureus; conditions: 100 μM Zn2SO4, RPMI 1640 with 10% FBS, 24 h
Protocol: To assess whether zinc, at the concentrations used in the inventors' study, adversely affect the growth and viability of S. aureus (strains Pig1 and LAC), bacteria (˜5×10^5 CFU) were incubated with or without 100 μM zinc (Zn2 SO4) in RPMI 1640 with 10% FBS. The assay was performed in triplicate in 96-well plates for 24 h at 37° C. at which time ten-fold serial dilutions were plated on THA for enumeration of CFU.

S. aureus [2] = experiment: S. aureus survival assay in BMDM treated with IFN-γ; type: cell-based, mouse; conditions: C/EBPε−/− BMDM, IFN-γ 48 h before infection, 24 h
Protocol: Macrophages were infected with S. aureus at the specified MOI. […] After 30 min, macrophages were washed three times with pre-warmed media to remove extracellular bacteria. Gentamicin (Invitrogen, Carlsbad, Calif., USA) was then added to each well at a final concentration of 400 μg/mL for 1.5 h. At this time, the concentration of gentamicin in the media was reduced to 100 μg/mL for the remainder of the assay. At 24 h post infection, cells were washed three times with PBS, then 100 μl of 0.02% Triton X-100 in water was added to each well and pipetted vigorously 10× to promote macrophage lysis and release intracellular bacteria. Ten-fold serial dilutions of each cell lysate were immediately plated onto THA, and CFU were enumerated following overnight incubation at 37° C. Data are representative of at least two independent experiments performed in triplicate.
BMDM harvested from WT and C/EBPε^−/− mice were seeded at the required density of 5×10^4 cells per well (100 μl) in 96-well tissue culture plates. Macrophages were then activated with IFN-γ (200 U/mL) for 48 h prior to infection. Activated and control non-activated macrophages were infected with S. aureus at the specified MOI. The macrophage survival assay was then performed as described for U937 macrophages.

S. aureus [3] = experiment: Murine skin (s.c.) S. aureus infection with IFN-γ treatment; type: in vivo, mouse; conditions: C/EBPε−/− mice, 5,000 U i.p. daily
Protocol: S. aureus was pelleted, washed twice and resuspended in PBS (Mediatech, Manassas, Va., USA) mixed 1:1 with sterile Cytodex beads (GE Healthcare, Pasadena, Calif., USA) at the specified inoculum, following an established protocol for generating localized S. aureus and S. pyogenes subcutaneous (s.c.) infection^41,42. One hundred microliters of two separate inocula, as specified, were administered by s.c. injection into the respective two flanks of each mouse. Injections were performed with careful visualization of the needle to assure that they were not intramuscular. Serial dilutions were prepared and plated to confirm the actual inocula used.
Baseline weights of mice were recorded prior to infection and daily thereafter until sacrifice. Lesions were measured with a caliper, daily throughout infection. Lesions were defined by darkened areas of dermonecrosis. The inventors' method to measure lesion size has been previously reported^43. Briefly, skin lesions were quantified by multiplying the length and width of the lesion. Irregularly-shaped lesions were broken down into smaller symmetrical pieces, and each piece was measured by the same method.
Following euthanization of mice on the specified day, infected skin lesion tissue was aseptically excised, and thoroughly homogenized and mixed in 1 mL of PBS as previously shown^43. Ten-fold serial dilutions of the homogenates were plated on THA for CFU determination. The spleen and both kidneys were aseptically removed from each animal and processed in the same way. When required, the appropriate homogenized suspensions (skin lesions) were centrifuged at 15,000 g for 10 min and supernatants stored at −80° C. for subsequent analysis by ELISA.
Mice were infected with S. aureus by s.c. injection as already described. One hundred microliters of two separate specified inocula were injected into the respective two flanks of WT and C/EBPε^−/− mice.
C/EBPε^−/− mice were treated with recombinant murine IFN-γ (Shenandoah Biotechnology, Warwick, Pa., USA) 48 h prior to infection. IFN-γ was administered i.p. (0.5 mL in PBS) at a dose of 5,000 U. Control WT and C/EBPε^−/− mice received equal amounts of PBS. The respective mice continued to receive IFN-γ or PBS every 24 h until they were euthanized.
Mouse weight and lesion size were recorded daily as already described. At day 4 p.i., mice were euthanized, and the CFU from skin lesions, spleen, and kidneys were determined.

| Molecule | effect on viability and growth of S. aureus [1] | effect on viability and growth of S. aureus ([1]; listed as Zinc) | S. aureus CFU recovered from / killing by macrophages (S. aureus [2]) | CFU in skin lesions, spleen and kidneys vs PBS (S. aureus [3]) | area of dermonecrosis (S. aureus [3]) | changes in body weight vs PBS-treated WT control (S. aureus [3]) | overall lesion size / area vs PBS (S. aureus [3]) |
| --- | --- | --- | --- | --- | --- | --- | --- |
| O=S(=O)([O-])[O-].[Zn+2] [zinc] | no effect; also recorded: does not have direct anti-staphylococcal activity | no effect | – | – | – | – | – |
| B1 | – | – | reduced the number of S. aureus CFU; also recorded: improved killing of S. aureus | lower numbers of bacteria in the skin lesions; also recorded: significantly lower CFU | dramatically ameliorated | similar | no effect on the overall lesion area; also recorded: no effect on overall lesion size |
